# System: GzmB peptide substrate AIEFDSGc on PEG-coated iron oxide nanoparticles (GzmB-sensing synthetic biomarker)
# Factor D (Sigma), sequence (P00746 26-253): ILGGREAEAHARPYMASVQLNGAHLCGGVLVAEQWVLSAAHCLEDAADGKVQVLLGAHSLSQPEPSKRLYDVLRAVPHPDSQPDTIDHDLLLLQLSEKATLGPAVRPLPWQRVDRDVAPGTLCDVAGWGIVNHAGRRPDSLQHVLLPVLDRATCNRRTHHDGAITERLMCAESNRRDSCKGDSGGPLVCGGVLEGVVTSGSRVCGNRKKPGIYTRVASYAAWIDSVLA
# Factor I (Sigma), sequence (P05156 19-583): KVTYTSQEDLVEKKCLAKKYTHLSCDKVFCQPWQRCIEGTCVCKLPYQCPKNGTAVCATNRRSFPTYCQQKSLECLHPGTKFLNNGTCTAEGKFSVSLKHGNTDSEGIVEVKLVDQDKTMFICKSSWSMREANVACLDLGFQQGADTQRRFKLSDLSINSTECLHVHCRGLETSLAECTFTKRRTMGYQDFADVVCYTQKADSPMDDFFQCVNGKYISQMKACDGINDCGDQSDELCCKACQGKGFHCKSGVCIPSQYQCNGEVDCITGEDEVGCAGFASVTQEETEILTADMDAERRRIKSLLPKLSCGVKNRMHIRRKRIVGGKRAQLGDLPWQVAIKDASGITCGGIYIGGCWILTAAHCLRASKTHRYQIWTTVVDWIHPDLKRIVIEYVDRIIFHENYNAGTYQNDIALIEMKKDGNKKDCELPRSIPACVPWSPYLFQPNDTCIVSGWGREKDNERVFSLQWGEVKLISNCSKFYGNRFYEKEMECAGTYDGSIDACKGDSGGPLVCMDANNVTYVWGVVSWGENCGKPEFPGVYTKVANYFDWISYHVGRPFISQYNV
# MASP2 (Biomatik), sequence (O00187 16-686): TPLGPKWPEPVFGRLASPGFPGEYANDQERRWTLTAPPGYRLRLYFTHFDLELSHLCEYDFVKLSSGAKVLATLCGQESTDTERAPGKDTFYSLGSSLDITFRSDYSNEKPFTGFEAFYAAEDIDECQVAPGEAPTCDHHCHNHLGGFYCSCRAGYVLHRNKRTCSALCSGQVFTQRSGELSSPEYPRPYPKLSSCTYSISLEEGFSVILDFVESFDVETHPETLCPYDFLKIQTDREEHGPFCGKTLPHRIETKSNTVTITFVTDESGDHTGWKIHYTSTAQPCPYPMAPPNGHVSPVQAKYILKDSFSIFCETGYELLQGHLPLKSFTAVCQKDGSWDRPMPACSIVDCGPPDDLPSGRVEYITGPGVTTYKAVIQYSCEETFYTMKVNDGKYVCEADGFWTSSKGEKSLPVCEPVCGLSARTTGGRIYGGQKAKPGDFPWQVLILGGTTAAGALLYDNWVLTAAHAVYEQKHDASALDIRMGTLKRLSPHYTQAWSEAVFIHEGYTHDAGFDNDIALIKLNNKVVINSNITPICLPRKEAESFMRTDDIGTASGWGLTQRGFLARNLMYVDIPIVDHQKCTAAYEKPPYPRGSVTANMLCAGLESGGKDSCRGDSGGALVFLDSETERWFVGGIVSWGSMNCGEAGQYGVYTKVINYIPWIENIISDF
row,Substance,fluorescent intensity (in vitro protease cleavage assay)
1,mouse thrombin (HaemTech),Increases in fluorescent intensity were observed only in samples containing recombinant GzmB
2,human thrombin (HaemTech),Increases in fluorescent intensity were observed only in samples containing recombinant GzmB
3,Factor I (Sigma),Increases in fluorescent intensity were observed only in samples containing recombinant GzmB
4,Factor D (Sigma),Increases in fluorescent intensity were observed only in samples containing recombinant GzmB
5,MASP2 (Biomatik),Increases in fluorescent intensity were observed only in samples containing recombinant GzmB
